This is an account of results in IntAct's records for PubMed 28712572.

Sequences and labels used below:
B1: Gamma-aminobutyric acid receptor-associated protein (Homo sapiens), O95166 (parent)
chain: MKFVYKEEHPFEKRRSEGEKIRKKYPDRVPVIVEKAPKARIGDLDKKKYLVPSDLTVGQFYFLIRKRIHLRAEDALFFFVNNVIPPTSATMGQLYQEHHEEDFFLYIAYSDESVYGL

In the test the parent is B1. The following applies: with pcm1_human PCM1, Q15154.
Chain of pcm1_human PCM1, Q15154 (Q15154 whole entry): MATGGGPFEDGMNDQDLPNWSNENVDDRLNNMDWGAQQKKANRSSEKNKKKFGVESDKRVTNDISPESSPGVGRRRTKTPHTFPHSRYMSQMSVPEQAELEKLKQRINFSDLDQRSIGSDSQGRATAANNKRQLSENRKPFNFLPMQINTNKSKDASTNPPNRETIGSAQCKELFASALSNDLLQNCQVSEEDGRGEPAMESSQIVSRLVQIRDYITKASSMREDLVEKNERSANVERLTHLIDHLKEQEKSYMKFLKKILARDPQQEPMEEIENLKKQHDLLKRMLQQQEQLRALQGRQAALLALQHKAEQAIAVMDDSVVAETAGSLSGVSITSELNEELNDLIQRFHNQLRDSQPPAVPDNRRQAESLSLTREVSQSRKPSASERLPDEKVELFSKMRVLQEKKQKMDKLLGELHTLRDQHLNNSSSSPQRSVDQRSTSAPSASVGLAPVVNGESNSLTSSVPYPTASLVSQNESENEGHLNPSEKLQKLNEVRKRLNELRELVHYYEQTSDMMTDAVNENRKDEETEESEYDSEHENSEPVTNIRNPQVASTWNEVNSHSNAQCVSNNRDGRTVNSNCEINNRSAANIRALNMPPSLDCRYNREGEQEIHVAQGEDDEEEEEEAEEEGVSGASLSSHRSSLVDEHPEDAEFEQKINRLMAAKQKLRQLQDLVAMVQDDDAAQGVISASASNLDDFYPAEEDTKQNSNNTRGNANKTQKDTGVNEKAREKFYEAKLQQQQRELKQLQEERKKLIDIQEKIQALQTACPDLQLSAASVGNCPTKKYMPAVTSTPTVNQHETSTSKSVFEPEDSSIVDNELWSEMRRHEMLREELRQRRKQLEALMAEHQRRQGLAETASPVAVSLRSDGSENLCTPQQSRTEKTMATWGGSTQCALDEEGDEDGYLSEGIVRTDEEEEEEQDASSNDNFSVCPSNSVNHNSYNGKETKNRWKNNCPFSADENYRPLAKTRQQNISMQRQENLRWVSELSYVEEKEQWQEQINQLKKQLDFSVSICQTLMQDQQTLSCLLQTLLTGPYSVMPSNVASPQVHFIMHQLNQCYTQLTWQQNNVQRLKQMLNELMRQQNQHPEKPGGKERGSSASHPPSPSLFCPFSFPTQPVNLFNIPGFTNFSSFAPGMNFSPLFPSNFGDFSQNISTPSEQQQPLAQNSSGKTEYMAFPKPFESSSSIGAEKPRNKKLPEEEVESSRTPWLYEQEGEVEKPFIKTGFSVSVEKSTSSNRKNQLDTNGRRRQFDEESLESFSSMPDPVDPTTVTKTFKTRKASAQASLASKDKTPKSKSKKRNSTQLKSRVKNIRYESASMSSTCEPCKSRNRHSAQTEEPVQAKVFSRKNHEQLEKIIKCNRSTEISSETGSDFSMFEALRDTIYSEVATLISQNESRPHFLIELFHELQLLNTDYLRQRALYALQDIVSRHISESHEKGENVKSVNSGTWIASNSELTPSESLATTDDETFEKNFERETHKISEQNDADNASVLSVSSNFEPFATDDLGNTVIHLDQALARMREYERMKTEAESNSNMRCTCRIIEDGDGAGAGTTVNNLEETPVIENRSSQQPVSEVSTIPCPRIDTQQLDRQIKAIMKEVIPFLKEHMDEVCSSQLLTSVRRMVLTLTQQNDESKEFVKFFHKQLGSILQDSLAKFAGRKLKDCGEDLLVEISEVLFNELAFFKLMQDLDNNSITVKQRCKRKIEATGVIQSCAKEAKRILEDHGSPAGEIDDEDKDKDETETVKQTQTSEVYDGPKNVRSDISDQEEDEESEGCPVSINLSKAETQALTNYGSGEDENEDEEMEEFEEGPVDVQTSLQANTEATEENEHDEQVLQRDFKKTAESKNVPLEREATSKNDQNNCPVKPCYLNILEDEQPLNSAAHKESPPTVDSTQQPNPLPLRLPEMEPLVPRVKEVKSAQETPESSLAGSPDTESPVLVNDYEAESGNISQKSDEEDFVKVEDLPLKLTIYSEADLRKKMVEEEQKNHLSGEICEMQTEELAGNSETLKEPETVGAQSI
Take G116A: the “effect of a mutation on the interaction” value is reported as “with no effect”.
